The source of these data is patent US20150284436A1 (published 2015).

Residue numbers refer to the chain shown, from its start. Names and notes keep the numbering of the source.

T1: TRX(C35A), tag-free (human, UniProt P10599 1-105)
T1 construct: Human TRX with alanine for cysteine at position 35; Co-expressed tag-free with T-TXNIP mutants or N-TXNIP; also called modified TRX protein
T1 chain: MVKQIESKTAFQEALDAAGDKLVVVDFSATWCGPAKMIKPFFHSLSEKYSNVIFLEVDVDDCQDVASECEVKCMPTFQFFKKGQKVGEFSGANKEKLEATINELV

T2: HA-tagged TXNIP (human, UniProt Q9H3M7 1-391)
T2 construct: Expressed in HEK 293T cells
T2 sequence: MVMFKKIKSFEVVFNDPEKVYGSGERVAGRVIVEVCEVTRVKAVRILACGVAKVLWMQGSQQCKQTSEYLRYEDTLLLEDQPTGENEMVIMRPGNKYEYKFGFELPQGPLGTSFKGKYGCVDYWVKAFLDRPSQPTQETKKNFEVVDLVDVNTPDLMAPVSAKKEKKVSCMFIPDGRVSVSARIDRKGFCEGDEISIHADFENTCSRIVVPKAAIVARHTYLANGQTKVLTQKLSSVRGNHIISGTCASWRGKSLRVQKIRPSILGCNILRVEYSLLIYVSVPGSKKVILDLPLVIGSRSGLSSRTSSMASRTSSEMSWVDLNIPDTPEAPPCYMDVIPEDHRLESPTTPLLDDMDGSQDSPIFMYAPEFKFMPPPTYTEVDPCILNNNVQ

T3: T-TXNIP (TXNIP residues 3-317) (human, UniProt Q9H3M7 3-317)
T3 construct: In E. coli it was expressed with an N-terminal hexahistidine-tag that was removed by rTEV protease; also called native T-TXNIP; T-TXNIP(3-317)
T3 sequence: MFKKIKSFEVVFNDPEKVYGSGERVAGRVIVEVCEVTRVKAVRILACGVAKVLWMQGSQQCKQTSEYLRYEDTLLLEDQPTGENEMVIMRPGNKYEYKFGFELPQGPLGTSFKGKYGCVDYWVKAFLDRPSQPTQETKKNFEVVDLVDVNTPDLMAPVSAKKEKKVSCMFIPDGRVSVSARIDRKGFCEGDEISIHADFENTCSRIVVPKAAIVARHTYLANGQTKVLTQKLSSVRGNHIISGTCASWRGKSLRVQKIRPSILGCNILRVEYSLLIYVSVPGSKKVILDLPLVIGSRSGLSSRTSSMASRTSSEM

T4: TRX, wild-type, with C-terminal hexahistidine-tag (NMR sample) (human, UniProt P10599 1-105)
T4 construct: also called unlabeled, reduced TRX; wild-type TRX; not shown: C-terminal hexahistidine-tag from pET21 vector
T4 sequence: T1 chain with A35C

B1: T-TXNIP(C170S/C205S/C267S) (other)
chain: T3 sequence with C168S, C203S, C265S
notes: 1; The N-terminal hexahistidine-tag was removed by rTEV protease; also called modified TXNIP protein of COM2
B2: FLAG-tagged T-TXNIP (other)
chain: T3 sequence
notes: Expressed in HEK 293T cells
B3: human TRX (thioredoxin), wild-type, tag-free (enzyme)
chain: T1 chain with A35C
notes: Expressed tag-free under the T7 promoter together with TXNIP constructs in E. coli; also called native TRX; endogenous TRX
B4: T-TXNIP(C120S/C170S/C205S/C267S) (other)
chain: T3 sequence with C118S, C168S, C203S, C265S
notes: 1; The N-terminal hexahistidine-tag was removed by rTEV protease; also called T-TXNIP(C120,170,205,267S); modified TXNIP protein of COM1
B5: N-TXNIP (N-terminal domain of TXNIP, residues 3-156) (other)
chain: MFKKIKSFEVVFNDPEKVYGSGERVAGRVIVEVCEVTRVKAVRILACGVAKVLWMQGSQQCKQTSEYLRYEDTLLLEDQPTGENEMVIMRPGNKYEYKFGFELPQGPLGTSFKGKYGCVDYWVKAFLDRPSQPTQETKKNFEVVDLVDVNTPDL
notes: The NMR sample was 15N-labeled and its hexahistidine-tag was removed by rTEV; In the Ni-NTA co-purification it carried the N-terminal hexahistidine-tag; also called N-terminal TXNIP; ^15N-labeled N-TXNIP
B6: TRX C73A mutant (NMR sample) (enzyme)
chain: T1 chain with A35C, C73A
notes: not shown: C-terminal hexahistidine-tag from pET21 vector
B7: N-TXNIP C63S mutant (^15N-labeled) (other)
chain: B5 chain with C61S
B8: TRX C62A mutant (NMR sample) (enzyme)
chain: T1 chain with A35C, C62A
notes: as for B6
B9: N-TXNIP C120S mutant (^15N-labeled) (other)
chain: B5 chain with C118S
B10: TRX C69A mutant (NMR sample) (enzyme)
chain: T1 chain with A35C, C69A
notes: as for B6

In assay [1] the target is T1, TRX(C35A), tag-free. Kind of assay: co-crystal structure, X-ray, 2.7 Å.
The target in another assay is T2, HA-tagged TXNIP. Kind of assay: anti-FLAG agarose immunoprecipitation from HEK 293T lysates (50 mM iodoacetamide), Western blot. As for the experimental part: To test the in vivo interprotomer interaction between TXNIP molecules, HEK 293T cells were transfected with plasmids expressing HA-tagged-TXNIP and FLAG-tagged T-TXNIP. 24 hours later, the cells were harvested and lysed in the 50 mM iodoacetamide-containing buffer [0.5% Triton X-100, 150 mM NaCl, 10% glycerol, 1 mM NaF, 1 mM AEBSF, 2 μg/mL leupeptin, 5 μg/mL aprotinin and 20 mM HEPES (pH 7.2)]. After centrifugation at 16,000 rpm for 20 minutes, the supernatant was incubated with anti-FLAG M2 agarose (Sigma) at 4° C. for 12 hours. The immobilized proteins were collected by centrifugation and washed three times with the lysis buffer. The bound proteins were subjected to SDS-PAGE under reduced and non-reduced conditions. […] 24 hours later, the cells were harvested and lysed in the lysis buffer. After centrifugation at 16,000 g for 20 minutes, the supernatants were incubated at 4° C. for 12 hours with monoclonal anti-FLAG M2 agarose beads (Sigma) for immunoprecipitation, or with glutathione-conjugated sepharose beads (GE Healthcare) for pull-down assay. The immobilized proteins were collected by centrifugation and washed three times with lysis buffer. Bound proteins or WCLs were eluted by boiling in SDS sample buffer. […]
For orientation: A western blot detects proteins with antibodies after separation by electrophoresis.

The target of assay [2] is T3, T-TXNIP (TXNIP residues 3-317). The assay can be described thus: GST pull-down from transfected HEK 293T lysates, immunoblot.
Assay [3] deals with T1, TRX(C35A), tag-free. Kind of assay: size-exclusion chromatography. As to the method: A Superdex™ 200 10/300 GL gel filtration column (GE Healthcare) installed on an Acta purifier FPLC system (GE Healthcare) was equilibrated with 50 mM Tris-HCl (pH 8.0), 500 mM NaCl, and 10% glycerol at a flow rate of 0.4 ml/min at room temperature. Purified TRX-T-TXNIP and its mutants were injected onto the column. Ovalbumin was used as a molecular weight standard.
The structures of COM1 and COM2 are essentially identical, each contains two heterodimeric complexes of TRX and T-TXNIP in an asymmetric unit, with a large interface between the two T-TXNIP molecules (FIGS. 5A and B). […] Thus, the interfaces between the T-TXNIP molecules in the crystal structures merely constitute large crystal contacts.
Background: Size exclusion chromatography separates by hydrodynamic size, large species first.

Assay [4] has as its target B3. The assay can be described thus: GST pull-down from transfected HEK 293T lysates, immunoblot.
In assay [5] the target is T4, TRX, wild-type, with C-terminal …. Kind of assay: 1H-15N HSQC NMR titration of 15N-labeled N-TXNIP. As for the experimental part:
(§1) NMR interaction experiments were carried out by recording ¹H-¹⁵N NMR HSQC spectra of ¹⁵N-labeled N-TXNIP upon addition of unlabeled TRX or its mutant, which was reduced with 5 mM DTT and dialyzed against 50 mM potassium phosphate (pH 6.6) prior to the interaction study to remove excess DTT.
(§2) The ¹H-¹⁵N HSQC spectra of all proteins were measured on a Bruker 900 MHz NMR spectrometer at the Korea Basic Science Institute (Ochang, Korea). The NMR measurements were performed using 0.3 mM ¹⁵N-labeled protein in 50 mM potassium phosphate (pH 6.6) containing 10% D₂O at 25° C. All NMR spectra were processed with Topspin 2.1 and analyzed with the program SPARKY 3.1.
To evaluate the involvement of N-TXNIP in the interaction of TXNIP with TRX, an NMR-titration experiment was performed by recording a series of ¹H-¹⁵N heteronuclear single quantum coherence (HSQC) spectra of ¹⁵N-labeled N-TXNIP after addition of unlabeled, reduced TRX.

Assay [6] concerns the target B5. The assay can be described thus: 1H-15N HSQC NMR of 15N-labeled N-TXNIP. As for the experimental part: as §1, §2
(§3) Further, TRX muteins were added and ¹H-¹⁵N HSQC spectra of ¹⁵N-labeled N-TXNIP were monitored to examine interaction between N-TXNIP and TRX. […] In contrast, C62A, C69A, and C73A mutants caused a chemical shift similar to the wild-type TRX (FIG. 12).

The target in assay [7] is T4, TRX, wild-type, with C-terminal …. The assay can be described thus: 1H-15N HSQC NMR. As for the experimental part: as §1, §2, §3

Consider B1, for which the binding result in the assay with TRX(C35A), tag-free [1] was “binds”.
Turning to B2, in the assay with HA-tagged TXNIP, the binding result was “binds”.
With B3, in assay [2], the binding result is reported as “binds”.
Consider B4, for which the binding result in the assay with TRX(C35A), tag-free [3] is “binds”; in assay [4] it was “binds”.
Consider B5, for which the binding result in assay [5] was “binds”.
Turning to B6, in assay [6], the binding result is on record as “binds”.
Regarding B7, the binding result in assay [7] was “no binding”.
Turning to B8, in assay [6], the binding result is given as “binds”.
As to B9, in assay [7], the binding result was “no binding”.
As to B10, in assay [6], the binding result was “binds”.
